# Experiment: yeast display, Sf9 membrane polyspecificity reagent, FACS + sequencing; frameworks hold sequencing errors
# In short: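 Genes from sorted yeast were amplified by colony PCR, read by MiSeq 2 × 250 sequencing and filtered on CDR length. These cells carried a synthetic nanobody library in Saccharomyces cerevisiae BJ5465 and were sorted by FACS into low and high (top ~1%) gates on anti-HA and streptavidin fluorescence. Polyreactivity is labelled according to the gate of origin.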
row,Sequence,polyreactivity (PSR sort gate)
1,QDQLVESGVGLVQAGGSHRLSCAASGSIFGWYARGWYRQAPGKERELGATITTGGSTNYADSVKGRFTISRDNAKNTVYLQMNSLKPEDTAVYYCAAGYNTWYGQYGYWGQGTQVTVSS,low polyreactivity
2,QDQLVESGVGLVQAGGSLRLSCASSGRIFDPYAMGWYRQAPGKERELVARITWRGGRTYYADSVKVRFTISLDNAKNTVYLQMNSLKPEDTAVFYCNADFYYRYYCAYDYWGQGTQVTVSS,high polyreactivity
3,QDQLVESRGALVQAGGSLRLSCAASGITFVRNAMGWYRQAPGKERELVAAISSGGSTYYADSVKGRFTISRDNAKNTVYLQMNSLTREDTAVYYCAVLSSWRFSGYDYWGQGSQVTVSS,low polyreactivity
4,QDQLVESRGGLVQAGGSLRLSCAASGIIFGYYAMGWYRQAPGKERELVAAISRRGGSTYYADSVKGRFTISRDNAKNTVYLQMNSLKPEDTAVYYCAAVELRLSTPDMESWGQGTQVTVSS,high polyreactivity
5,QDQLVESVGGLVQAGGSLRLSCAASASTFGSNAMGWYRQAPGKDREFVAAISRRGGSTYYADSVKGRFTFSRDNAKNTVYLQMNSLKPEDTAVYYCAADYISLREEHYWGHGTQVTVSS,high polyreactivity
6,QDQLVESVGGLVQAGGSLRLSCAASGLIFYYYDMGWYRQAPGKERELVAAISSRGSSTYYADSVKGRFTISRVNAKNTVYLQMNSLKPEDTAVYYCAADSVSKYFGYDYWGQGTQVTVSS,high polyreactivity
7,QDQLVESVGGLVQAGGSLRLSCAASGSIFNRYVMGCYSQAPGKERELVAAMSRRGGNTYYADSVKGRFTISRDNAKNTVYLQMNSLKPEATAVYYCAADYSYYYGYDYWGQGTQVTVSS,high polyreactivity
8,QDQLVESVGGLVQAGGSLRLSCAASGSTISLYAMGWYRQAPGKERELVAAISQSGSRTYFADSVKGRFTISRDNAKNTVYLQMISLKQEDTAVYYCAAYSPQTYLRWTYGYWGQGTQVTVSS,high polyreactivity
9,QDQLVQSGGGLVQAGGSLRKSCAASGSTFNPNTMGWNKQAPGKERELVASITWRGGRTYYADSVKGRFTISRDNAKNTVSLQMNSLKPEDTAVFYCASVTFSYDGYDYWGQGTQVTVTS,low polyreactivity
10,QDQLVQSGGGLVQAGGSLRLSCAASGRTFGKYAMGWYRQAPGKERELVAAITGGGGTKYADSVKGRFTISGDNAKNSVYLQMNSLKPEDTAVYYCAAASGSRRHGYWGQGTQVTVSS,high polyreactivity
11,QDQLVQSGGGLVQAGGSLRLSCDASGSTLNWYAMGRYRQAPGKERELVAVITSSGVSTYYADSVKGRFTISRDNAKNTVYLQMNSLKPEDTAVYYCNAKWYRWQRGTVKYDYWGQGTQVTVSS,low polyreactivity
12,QDQRVESGGGLVQAGGSLRLSCAASGRTFKGNARGWYRQAPGKERELVAAISKSGGRTYYADSVKARFTISRDNAKNTVYLQMNSLKPEDTAVYYCAVDEGPTIVRFGYSGQGTQVTVSS,high polyreactivity
13,QEHLVESGGGLVQAGGSLRLSCAAYGSIFVSYAMGWYRQAPGKERELVAAISWSGGSTYYADSVKGRFTISRDNAKNTVYLQMNSLKPEDTAVYYCNGVPSEGFDWGQGTQVTVSS,low polyreactivity
14,QEQLQESGGCLVQAGGSLRLSCAASGSIFKVVDMGLYRQSPAKEREFVATIGEGGKTYYADSVKGRFTISRDNEKNTVYLQMNSLKPEDTAVYFYAVVLGTSYRYTYWGEGTQVTVSS,low polyreactivity
15,QEQLQESGGGLEQPGGSLRLSCAASGSISGSSTMGWYRQAQGKERELVASIAVGANTNYADSAKGRFTISRDNAKNPVYLQMNSLKPEDTAVYYCAVDYYIYYFHYWGQATQVTVSS,high polyreactivity
16,QEQLQESGGGLVQACGSLRLSCAASGSISGSSTMGWYRQAPGKERELVASIAVGANTNYADSAKGRFTISRDNAKTTVYLQMNSLKPEDSAVYYCAADYWFGYGTYEYWGQGTQVTVSS,high polyreactivity
17,QEQLQESGGGLVQAGCSLRLSCAANGYIFSVEYMGCYCLAPGKEREFVATINYDTSTYYADSVKGRFTISRDNAKNTVYLQMNSLKPEDTAVYYCAAYFYAYRSPGYWGLGTQVTVSS,high polyreactivity
18,QEQLQESGGGLVQAGGSLCLSCAASGTIFFDGDMGWYRQAPGKEREFVAAINPGGSAYYADSVKGRLPLAAITHTVYLQMNSLKPEDTAVYYCAAKLFDVYGYYYWGQGTHVTVSS,low polyreactivity
19,QEQLQESGGGLVQAGGSLRLSCAASGIIFDWFFMGWYRQAPGREREFVAAITYGATTNYADSVKGRFTISRDNGKNTVYLQMNSLKPEDTAVYYCAAVRGRGGTHAYWGQGTQVTVSG,low polyreactivity
20,QEQLQESGGGQVQAGGSLLLSCAASGNIIRYYYMGWYRQAQGKVRELVAAITYGTSTNYADSVKGRFTISRDNAKNTVYLQMNSLKPEDTAVYYCAVDVNYGDPLDNWGEGTQVTVSS,high polyreactivity
21,QEQLQESGSGLVQAGGSLRLSCAASGNIFHDWVMGWYRQAPGKERELVAAISPGAITYYADSVKGRFTISRDNAKNTVYLQTNSLKPEDTAVYYCAAYYIVEYLHGYWGQGTRVTVSS,low polyreactivity

row,Sequence,polyreactivity (PSR sort gate)
1,QEQLQESGSGLVQAGGSLRLSCAASGNIFQDWVMGWYRQAPGKERELVAAISHGAITYYADSVKGRFTISRDNAKYTVYLQTNSLKREDTAVYYCAAYYIVEYLHGYWGQGTRVTVSS,low polyreactivity
2,QEQLQESGSGLVQAGGSLRLSCAASGNIFQDWVRGWYRQAPGKERELVAAISPGAITYDADSVKGRFTISRDNAKNTVYLQTNSLNPEDTAVYYCAAYYIVEYLQGYWGQGTRVTVSS,low polyreactivity
3,QEQLQESGVGLVQAGGSLRLICEASGSISQAWYMGWYRQAPGKERELVAAINVGAITYYADSVKGRFSISRDNAKNTVYLPMNSLTPDDTAVYYCAVDQYSEAYYDYWGQGTQATVSS,high polyreactivity
4,QEQLQGSGGGLAQAGDSLRLSCAASGTIFSEYNNGLVSPGAGQRTRTCCRYWCWGNTYYADSAKGRFTTIRDNAKNTVYLQKNSLKPEDTAVYYCAFNRPYPSRHIYRGQGTQVTVSS,high polyreactivity
5,QEQLVESGGGFVQAGGSLRLSCAASGRIFTGYAMGWYRQAPGKERELVAVITWSTGSSTYYADSVKGRFTISRDNAKNTVYLQMNSLNPEDTAVYYFNAAYKIDFTYDTYDYWGQGTQVTVSS,low polyreactivity
6,QEQLVESGGGLVQAGGSLGLSCAASGLTFSYYAMRWYRQAPGKERELVAAIDYSGGTTYADSVKGRFTISRDNAKNTVYLQMNSLKPEDTAVYYCAAAPDGWFASGDEYWGQGTQVTVSS,high polyreactivity
7,QEQLVESGRGLVQAGGSLRVSCAASGSIFSVNGMGWYRQAPGKARELVAAIRRSGGSTYYADSVKGRFTISRDHAKNTVNLQRNSLKPEDTAVYYCAAPVRQSSYTRYDAWGQGTQVTVSS,high polyreactivity
8,QFHLVDSGGGLVQAGCSLRLSCAASGFTFNSYAMGWYRQAPGKERELVASITRGGGSTYYADSVKGRFTISRDNAKNTVYLKMNSLKPEDTAVYYCTARVRRRGGSFNYWGQGTQVIVSS,high polyreactivity
9,QFHLVESGGGLLQAGGSLRLSCAASGRIFYANDMGWYRQAPGKERELLAAISQSGGSTFYADSVKGRFTISRDNAKNTVYLQMNSLKPEDTAVYYCATDYYGPVYDLDYDYWGQGTQVSVSS,low polyreactivity
10,QFHLVESGGRLVQAGGSLRLSCAASGRIFYYYVMGWYRQAPGKERELVAVIDWSGGSTYYADSVKGRFTISRDNAKNTVYVQMNSLKPEDTAVYYCAKVWLNFSLAYEDYDYWGQGTQVTVSS,low polyreactivity
11,QFKLVESGGGLVQAGGSLRLICAASGITLNRNAMGRYRQAPGKEMELVARISRRGGTTYYADSVKGRFTISRDKAKNTVYLQMNSLKPEDTAVYYCNAGPYGGNPFDYWGQGTQVTVSS,high polyreactivity
12,QFKLVESGGGLVQAGGSLRLSCAASGSIVERKTMGWYRQAPGKEMEFVAGITQSGGRTYYADSVKGRFTISRDNAKNTVYLQMNSLKPEDTAVYYCATKTPRAWSYGYWGQGTQVTVSS,high polyreactivity
13,QFQHVESGAGLVHAGGCLRLSCSASGRTFFYNAMGWYRQPPGKEREFVASITWSGSTYYADSVKGRFTISRDNAKNTVYLLMNRLKQEDTAVYYCAADRQGGLVIDSGGYDYWGQGTQVTVSS,low polyreactivity
14,QFQHVESGGGLVQAGGSLRLSCAASGRTFGPYAMGCYIQAPGKERELVAAISSGGRTYYADSVKGRFTISRDNAKNTVYFQMNSLKPEDTAVYYCAATYGPSRYRYDYWGQGTQVTVSS,high polyreactivity
15,QFQHVESGGGLVQAGGSLRLSCAASGSTFGLYAMGWYRQAPGKERELVADITWSGGSTYYADSVKGRFTISRDNAKNTVYLQMNSLKPEDTAVYYCAARYPWVYYDFDYWGLGTQVTVSS,low polyreactivity
16,QFQHVESVGGLVQAGGSLRLSCAASGRIFPYYALGWYREAPGKERELVAAISQSDGSTYYADSVKGRFTISRDNAKNTVYLQMNSLKPEDTAVYYCAKRQASYTQHRKVRGDYWGQGPQVTVSS,low polyreactivity
17,QFQIVESGGGLVQAGGSLRLSCAASGSIFTQYAMGWYRQAPGKERELVAAITSGGSTYADSVKGRFTISRDNAMNTVYLQMKSLKPEDTAVYYCATPYSYRGVTFNYWGQGTQVTVSS,low polyreactivity
18,QFQIVESGGGLVQAGGSLRLSCAASGYTFTGNAMGWYRQATGKEREFVAGITWRTGRTYYADSVKGRFTISRDNAKNSVYVLMNSLKPEDTAVYYCNKDHQRRYFWSYDYWGQGTLVTVSS,low polyreactivity
19,QFQLAESGGGLVQAGGSLRLSCAASGFTFRDYAMGWSRQATGKERELVATISWRGGSTYYADSVKGRFTISRDNAKNTVYLQMNSLKPEDTAVYYCAKRPYQRSVPYGKYDYWGQGTQVTVSS,low polyreactivity
20,QFQLEESAGGLVQAGGSLRLSCAASGRTFADYAMGWYRPAPGKETELVAAISSGGSTYFAVSVKGRFTISRDNAKNTVYLQMNSLKPEDTAVYYCTARWGYRLGYWGQGTQVTVSS,high polyreactivity
